Experiments:
[1] = target: T1, bovine LPL (bovine, UniProt P11151 29-478, limits assumed); assay: cell-based or functional assay
T1 sequence (looked up): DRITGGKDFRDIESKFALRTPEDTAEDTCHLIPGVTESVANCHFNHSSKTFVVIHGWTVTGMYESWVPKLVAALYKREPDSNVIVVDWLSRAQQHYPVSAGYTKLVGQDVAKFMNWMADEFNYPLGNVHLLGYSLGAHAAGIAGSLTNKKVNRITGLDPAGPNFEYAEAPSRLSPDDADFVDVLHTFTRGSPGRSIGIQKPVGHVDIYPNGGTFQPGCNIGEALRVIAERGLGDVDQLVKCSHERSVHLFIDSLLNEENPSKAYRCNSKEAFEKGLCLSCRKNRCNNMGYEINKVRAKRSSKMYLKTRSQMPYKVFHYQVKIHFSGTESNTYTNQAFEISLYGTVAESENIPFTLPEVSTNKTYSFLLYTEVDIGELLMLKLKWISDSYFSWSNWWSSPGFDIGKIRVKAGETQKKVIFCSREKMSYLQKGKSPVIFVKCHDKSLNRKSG

[2] = target: T1, bovine LPL; assay: cell-based or functional assay; remark: listed apart in the source

EC50 (nM), inhibition of LPL activity [1]: 199 nM | IC50 for blocking LPL [2]: 341 nM
B1: mANGPTL3(17-240)-His (other)
chain: GAPSRVDPDLSSFDSAPSEPKSRFAMLDDVKILANGLLQLGHGLKDFVHKTKGQINDIFQKLNIFDQSFYDLSLRTNEIKEEEKELRRTTSTLQVKNEEVKNMSVELNSKLESLLEEKTALQHKVRALEEQLTNLILSPAGAQEHPEVTSLKSFVEQQDNSIRELLQSVEEQYKQLSQQHMQIKEIEKQLRKTGIQEPSENSLSSKSRAPRTTPPLQLNETENTEQDASHHHHHH
